Here are results for two proteins from article doi:10.1101/2025.10.14.682086v1.

Substrate in series [1]: CC1=CC(=O)c2ccccc2C1=O
As to the kind of experiment: purified protein, by the assay type. The note with it: 25.0 °C.

Substrate in series [2]: NC(=O)C1=CN([C@@H]2O[C@H](COP(=O)(O)OP(=O)(O)OC[C@H]3O[C@@H](n4cnc5c(N)ncnc54)[C@H](O)[C@@H]3O)[C@@H](O)[C@H]2O)C=CC1
Kind of series: purified protein, by the assay type. The conditions noted are these: 25.0 °C.

In general, Km refers to the substrate concentration at which the rate is half of its maximum. As usually defined, the kcat is the maximal rate divided by the concentration of active sites.

B1: Ec-NDH2 (Escherichia coli K-12) (protein)
chain: TTPLKKIVIVGGGAGGLEMATQLGHKLGRKKKAKITLVDRNHSHLWKPLLHEVATGSLDEGVDALSYLAHARNHGFQFQLGSVIDIDREAKTITIAELRDEKGELLVPERKIAYDTLVMALGSTSNDFNTPGVKENCIFLDNPHQARRFHQEMLNLFLKYSANLGANGKVNIAIVGGGATGVELSAELHNAVKQLHSYGYKGLTNEALNVTLVEAGERILPALPPRISAAAHNELTKLGVRVLTQTMVTSADEGGLHTKDGEYIEADLMVWAAGIKAPDFLKDIGGLETNRINQLVVEPTLQTTRDPDIYAIGDCASCPRPEGGFVPPRAQAAHQMATCAMNNILAQMNGKPLKNYQYKDHGSLVSLSNFSTVGSLMGNLTRGSMMIEGRIARFVYISLYRMHQIALHGYFKTGLMMLVGSINRVIRPRLKLH
As to B1, in series [1], the Km stood at 15.6 ± 8.5 µM and the kcat worked out at 107 ± 13.1 s⁻¹. Also, in series [2], the Km came to 1.7 ± 1.09 µM and the kcat was 43.6 ± 4 s⁻¹.

B2: Mc-NDH2 (Methylococcus capsulatus str. Bath) (protein)
chain: MQRKRNEQPLPRILIIGGGAGGLELATKLGRTLGKKGKAQVTLIDAHPTHIWKPLLHEVAAGTMDVNDDELDYLAQANACHFRFVLGRMSGLDRVAKQVKLAPMTNAAGEEVIPACSYPYDILVIAVGSVCNDFGVPGVAQNCIFLDTTEEAQQFHRRLLEAYMRAHAMGGAKQPGQLDVAIVGGGATGIELSAQLHQATRLLAAYGLDNVKPSDIKIHLIEAAPRLLPELPPRLSESTVKQLLALDVQLHLGERVVEARPDGVLTHTGKFIPATLKVWAAGVKAPDFLAQTDLETNRLNQVVVRQTLQTTRDDHIFAIGDCSACPWPERNTTVPPRAQSAHQQASTAYENILRLLAGKAPVDYRYRDYGSLVSLGKYSTVGNLMGNLLGSVMIEGVIARLVYLSLYKMHQYALFGPLRVGLIMIAHFFSQKLRPKIKLH
For B2, in series [1], the Km came to 12.9 ± 5.4 µM and the kcat turned out to be 3.9 ± 0.4 s⁻¹. In addition, in series [2], the Michaelis constant (Km) came to 9.5 ± 5.3 µM and the kcat was found to be 9.08 ± 1.1 s⁻¹.
